# In EP2718312B1:
# Biological target: hCXCR1 (human) (UniProt P25024)
# Test: cell-based or functional assay
# Sequence of hCXCR1 (human) (P25024 whole entry): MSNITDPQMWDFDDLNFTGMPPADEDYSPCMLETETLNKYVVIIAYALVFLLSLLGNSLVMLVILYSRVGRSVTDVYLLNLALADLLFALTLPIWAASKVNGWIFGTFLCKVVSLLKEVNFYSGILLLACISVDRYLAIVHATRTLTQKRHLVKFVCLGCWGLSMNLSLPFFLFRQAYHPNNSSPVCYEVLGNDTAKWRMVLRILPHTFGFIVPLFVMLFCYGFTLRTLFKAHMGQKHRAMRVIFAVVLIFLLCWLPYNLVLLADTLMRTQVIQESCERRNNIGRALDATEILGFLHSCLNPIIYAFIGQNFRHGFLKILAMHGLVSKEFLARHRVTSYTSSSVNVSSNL
Substance,"EC50, agonist activity in an Aequorin assay [nM]","EC50, Aequorin assay [nM]"
biotinIL-8 (6-78) (from UniProt P10145 28-99) (ligand),6.1,–
recombinant native IL-8 (from UniProt P10145 28-99),–,4.2
